Assay results: US20110020344A1 (US Dept. of Health and Human Services, published 2011)

Key:
Soluble CD22 (PeproTech) [1] = biological target: T1, Soluble CD22 (PeproTech) (human, UniProt P20273 20-687, limits assumed); assay: ELISA, Fab on coated soluble CD22
T1 construct: Bought from PeproTech; also called sCD22; soluble CD22 purified from mammalian cells
T1 sequence: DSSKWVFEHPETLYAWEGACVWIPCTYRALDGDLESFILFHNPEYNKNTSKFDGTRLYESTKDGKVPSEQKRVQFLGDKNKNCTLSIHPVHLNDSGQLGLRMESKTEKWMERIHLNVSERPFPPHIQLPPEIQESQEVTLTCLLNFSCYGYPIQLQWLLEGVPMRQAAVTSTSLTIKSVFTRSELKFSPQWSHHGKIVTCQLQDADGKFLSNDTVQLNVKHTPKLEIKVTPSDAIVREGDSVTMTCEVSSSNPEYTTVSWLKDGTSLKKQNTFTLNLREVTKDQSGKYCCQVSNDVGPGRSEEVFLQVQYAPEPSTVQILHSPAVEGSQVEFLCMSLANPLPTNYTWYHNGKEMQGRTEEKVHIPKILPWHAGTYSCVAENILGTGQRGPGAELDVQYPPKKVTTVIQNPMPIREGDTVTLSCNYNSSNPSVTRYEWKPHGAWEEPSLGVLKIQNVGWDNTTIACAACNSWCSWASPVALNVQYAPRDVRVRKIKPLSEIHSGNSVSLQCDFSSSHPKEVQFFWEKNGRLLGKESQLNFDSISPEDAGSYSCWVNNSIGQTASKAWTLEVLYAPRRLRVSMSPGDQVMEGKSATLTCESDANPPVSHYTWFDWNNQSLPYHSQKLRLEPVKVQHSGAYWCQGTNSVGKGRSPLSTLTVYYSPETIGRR
Description: (§1) CD22 or CD22-Fc in PBS was coated to a 96-well plate overnight at 4° C. The plate was then washed with PBST (PBS+0.05% Tween) and blocked with PBST supplemented with 5% dry milk. Fab, scFv or IgG1 diluted in PBST+milk was added to the wells. The Fab and scFv binding was detected using the anti-His-IgG-HRP (Qiagen) and the IgG1 binding was detected using the anti-human Fc-IgG-HRP (Sigma, St. Louis, Mo.). After washing, ABTS substrate (Roche, Mannheim, Germany) was added to each well and OD₄₀₅ was recorded after five to ten minutes.

Soluble CD22 (PeproTech) [2] = biological target: T1, Soluble CD22 (PeproTech); assay: ELISA, Fab on coated soluble CD22; reference Fab m971
Soluble CD22 (PeproTech) [3] = biological target: T1, Soluble CD22 (PeproTech); assay: ELISA, IgG1 on coated soluble CD22
Description: as §1

[4] = biological target: T2, native, cell surface-associated CD22 on B lymphoma cell lines (Raji, BJAB, ST486) (human, UniProt P20273 20-847); assay: flow cytometry titration on BJAB cells, apparent affinity from median fluorescence against concentration
T2 construct: Endogenous CD22 of Raji, BJAB and ST486 cells; the cell line is named under assay; also called cell surface CD22; cell-associated CD22
T2 sequence: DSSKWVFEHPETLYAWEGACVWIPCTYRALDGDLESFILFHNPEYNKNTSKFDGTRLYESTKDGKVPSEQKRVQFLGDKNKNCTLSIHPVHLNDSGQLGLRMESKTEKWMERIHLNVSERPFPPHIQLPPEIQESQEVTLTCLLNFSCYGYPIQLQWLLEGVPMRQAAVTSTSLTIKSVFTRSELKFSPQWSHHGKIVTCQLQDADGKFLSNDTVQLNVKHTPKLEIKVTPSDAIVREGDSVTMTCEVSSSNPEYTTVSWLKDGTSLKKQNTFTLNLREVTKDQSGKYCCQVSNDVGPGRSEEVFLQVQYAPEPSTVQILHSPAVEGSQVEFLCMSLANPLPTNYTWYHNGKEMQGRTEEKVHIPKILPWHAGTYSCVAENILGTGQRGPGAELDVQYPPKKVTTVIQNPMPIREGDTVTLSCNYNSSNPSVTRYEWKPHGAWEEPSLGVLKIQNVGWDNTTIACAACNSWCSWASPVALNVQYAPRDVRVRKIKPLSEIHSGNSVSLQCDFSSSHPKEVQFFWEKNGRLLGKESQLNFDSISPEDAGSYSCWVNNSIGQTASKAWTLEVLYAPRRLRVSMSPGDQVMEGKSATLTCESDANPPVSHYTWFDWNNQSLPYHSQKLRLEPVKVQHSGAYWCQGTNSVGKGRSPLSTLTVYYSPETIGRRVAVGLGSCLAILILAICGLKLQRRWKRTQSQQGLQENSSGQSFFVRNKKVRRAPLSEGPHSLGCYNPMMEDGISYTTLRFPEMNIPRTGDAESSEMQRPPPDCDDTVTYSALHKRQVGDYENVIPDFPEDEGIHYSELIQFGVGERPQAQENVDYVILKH
Description: SupT1, Raji, BJAB, and ST486 cells in suspension culture were collected by centrifugation and then re-suspended in ice-cold RPMI+10% FBS medium at a density of 1×10⁶/ml. ScFv or IgG1 at different concentrations were added to the cells. Cells were left on ice for half an hour before being washed with the same complete RPMI medium. […] For IgG1, anti-human-IgG-FITC was added to the cells. The cells were then washed with RPMI medium twice and re-suspended in PBS and subjected to flow cytometry analysis using the FACSCalibur™ (Becton Dickinson, San Jose, Calif.)
The binding characteristics of the two IgGs to cell surface-associated CD22 was further analyzed by using increasing concentrations of both IgGs against BJAB cells in a flow cytometry assay.

B1: Fab m972 (Fab, V domains shown)
VH: EVQLVQSGGGVVRPGGSLRLPCAASGFTFDDYGMSWVRQAPGKGLEWVSGINWNGGSTGYADSVKGRFTISRDNAKNSLYLQMNSLRAEDTALYHCARGGDDAFDIWGQGTMVTVSS
VL: RIVMTQSPGTLSVSPGETATLSCRASQSFSNMLAWYQQKSGQPPRLLIYGVSTRAAGVPARFSGSGSGTEFTLTISNLQSEDFAVYYCQQYGDWPRYTFGQGTKVERKR
notes: Human Fab from a naive Fab phage library, expressed in E. coli HB2151; also called m972 Fab
Question: For B1, which EC50 (Soluble CD22 (PeproTech) [1]) is on record?
Answer: Its EC50 is 2 nM.

Question: And the “fold better binding than m971” value (Soluble CD22 (PeproTech) [2])?
Answer: The value was 10 fold.

B2: IgG1 m972 (antibody, V domains shown)
VH: B1 VH
VL: B1 VL
notes: IgG1 format made by moving the heavy and light chains of the clone into pDR12, expressed in 293 free style cells; also called m972 IgG1; not shown: rest of the human IgG1 heavy chain constant region from vector pDR12
Question: With B2 as the binder, how does the EC50 (Soluble CD22 (PeproTech) [3]) read?
Answer: Its EC50 is < 1 nM.

Question: And the Kd [4]?
Answer: The Kd was ~15 nM.
